Numbering of substitutions follows the chain as printed. Each block holds one binder with its values, some of them ahead of it.
Key:
[1] = molecular target: synthetic amyloid-like fibrils of recombinant amyloidogenic λ6 variable domain protein (rVλ6Wil); test: EuLISA, fibrils coated on plate (FIG. 13B)
[2] = molecular target: synthetic amyloid-like fibrils of recombinant amyloidogenic λ6 variable domain protein (rVλ6Wil); test: EuLISA, fibrils coated on plate (FIG. 13A)

EC50 [1]: 95 nM
EC50 [2]: 95 nM
B1: humanized antibody VH6/VL3 (antibody, V domains shown)
VH: QVQLQESGPGLVKPSETLSLTCTVSGFSLSSYGVSWVRQPPGKGLEWLGVIWGDGSTNYHPNLMSRLSISKDTSKNQFSLKLSSVTAADTATYYCVTLDYWGQGTSVTVSS
VL: DVVMTQSPLSLPVTLGQPASISCRSSQSLVHRNGNTYLHWYLQRPGQSPRLLIYKVSNRFSGVPDRFSGSGSGTDFTLKISRVEAEDVGLYFCFQTTYVPNTFGGGTKLEIK

EC50 [2]: 75 nM
B2: humanized antibody VH7/VL4 (antibody, V domains shown)
VH: B1 VH with V37I, L48I, L67V, S68T, F78V, S79L, T92V
VL: B1 VL with Y41F, L42Q, L90V

EC50 [2]: 16 nM
B3: humanized antibody VH8/VL4 (antibody, V domains shown)
VH: B1 VH with V37I, L48I, L67V, S68T, N76S, T92V
VL: B1 VL with Y41F, L42Q, L90V

EC50 [2]: 17 nM
B4: humanized antibody VH10/VL4 (antibody, V domains shown)
VH: B1 VH with V37I, N76S, F78V, S79L, T92V
VL: B1 VL with Y41F, L42Q, L90V
